PMC5050560

Tests used:
[1] = biological target: cdPadR1 (PadR family transcription regulator, product of CDR20291_0991, Clostridium difficile R20291) (Clostridium difficile R20291); test: SEC
[2] = biological target: cdPadR1 (PadR family transcription regulator, product of CDR20291_0991, Clostridium difficile R20291) (Clostridium difficile R20291); test: SEC-MALS
[3] = biological target: cdPadR1^W94A (Clostridium difficile R20291); test: SEC-MALS

| Substance | stoichiometry N [1] | stoichiometry N [2] | stoichiometry N [3] |
| --- | --- | --- | --- |
| cdPadR1 (PadR family transcription regulator, product of CDR20291_0991, Clostridium difficile R20291) (from UniProt A0A9R0CDW8 1-109) (natural protein) | 2 | 2 | – |
| cdPadR1^W94A (from UniProt A0A9R0CDW8 1-109) (natural protein) | – | – | 2 |
